Measured values from patent US20260337278 (published 2026).
Changes are numbered by the printed parent chain. Read-outs that look alike come from different tables or passages of the source.

B1: ABT-806 V7 (antibody, V domains shown)
VH: QVQLQESGPSLVKPSQTLSLTCTVSGYSITSDFAWNWIRQFPGRKLEWMGYISYSGNTRYNPSLKSRFTISRDTSKNQFYLKLRSVTIADTAVYYCVTAGRGFPYWGQGTLVTVSS
VL: DIQMTQSPSSVSASVGDRVTITCHSSQDINSNIGWLQQKPGKAPKGLIYHGTNLDDGVPSRFSGSGSGADYTLTISSLQPEDFATYYCVQYAQFPWTFGQGTKVEIKR
B2: SI-95X41 (antibody)
chain 1: not shown
chain 2: DILMTQSPSSMSVSLGDTVSITCHSSQDINSNIGWLQQRPGKSFKGLIYHGTNLDDEVPSRFSGSGSGADYSLTISSLESEDFADYYCVQYAQFPWTFGGGTKLEIKRTVAAPSVFIFPPSDEQLKSGTASVVCLLNNFYPREAKVQWKVDNALQSGNSQESVTEQDSKDSTYSLSSTLTLSKADYEKHKVYACEVTHQGLSSPVTKSFNRGEC
B3: ABT-806 V1 (antibody, V domains shown)
VH: QVQLQESGPGLVKPSQSLSLTCTVSGYSITSDFAWNWIRQPPGKGLEWIGYISYSGNTRYNPSLKSRVTISRDTSKNQFSLQLNSVTAEDTAVYYCVTAGRGFPYWGQGTLVTVSS
VL: B1 VL
B4: ABT-806 V6 (antibody, V domains shown)
VH: B3 VH with P41A, I49V, V68F, S80Y
VL: B1 VL with Q3V, A13L, V15L, P44F, P80A, Q100P, V104L
B5: ABT-806 V9 (antibody, V domains shown)
VH: B1 VH
VL: B1 VL with Q3V, A13L, V15L, P44F, P80A, Q100P, V104L
B6: SI-95X23 (antibody)
chain 1: not shown
chain 2: DVQLQESGPSLVKPSQSLSLTCTVTGYSITSDFAWNWIRQFPGNKLEWMGYISYSGNTRYNPSLKSRISITRDTSKNQFFLQLNSVTIEDTATYYCVTAGRGFPYWGQGTLVTVSAGGGGSGGGGSGGGGSDILMTQSPSSMSVSLGDTVSITCHSSQDINSNIGWLQQRPGKSFKGLIYHGTNLDDEVPSRFSGSGSGADYSLTISSLESEDFADYYCVQYAQFPWTFGGGTKLEIKSGSGSGGGGGSGGGGSGGGGSDIQMTQSPSSLSASVGDRVTITCRSSQNIVHSNGNTYLDWYQQTPGKAPKLLIYKVSNRFSGVPSRFSGSGSGTDFTFTISSLQPEDIATYYCFQYSHVPWTFGQGTKLQITRTVAAPSVFIFPPSDEQLKSGTASVVCLLNNFYPREAKVQWKVDNALQSGNSQESVTEQDSKDSTYSLSSTLTLSKADYEKHKVYACEVTHQGLSSPVTKSFNRGEC
B7: SI-95X20 (antibody)
chain 1: not shown
chain 2: DIQMTQSPSSLSASVGDRVTITCRSSQNIVHSNGNTYLDWYQQTPGKAPKLLIYKVSNRFSGVPSRFSGSGSGTDFTFTISSLQPEDIATYYCFQYSHVPWTFGQGTKLQITRTVAAPSVFIFPPSDEQLKSGTASVVCLLNNFYPREAKVQWKVDNALQSGNSQESVTEQDSKDSTYSLSSTLTLSKADYEKHKVYACEVTHQGLSSPVTKSFNRGEC
B8: SI-95X21 (antibody)
chain 1: not shown
chain 2: B7 chain 2
B9: ABT-806 V5 (antibody, V domains shown)
VH: B3 VH with P41A, I49V, V68F, S80Y
VL: B1 VL with Q3V, V11L, A13V, V15P, Q79E, T85V
B10: ABT-806 V2 (antibody, V domains shown)
VH: B3 VH
VL: B1 VL with Q3V, V11L, A13V, V15P, Q79E, T85V
B11: SI-95X26 (antibody)
chain 1: not shown
chain 2: DILMTQSPSSMSVSLGDTVSITCHSSQDINSNIGWLQQRPGKSFKGLIYHGTNLDDEVPSRFSGSGSGADYSLTISSLESEDFADYYCVQYAQFPWTFGGGTKLEIKGGGGSGGGGSGGGGSDVQLQESGPSLVKPSQSLSLTCTVTGYSITSDFAWNWIRQFPGNKLEWMGYISYSGNTRYNPSLKSRISITRDTSKNQFFLQLNSVTIEDTATYYCVTAGRGFPYWGQGTLVTVSASGSGSGGGGGSGGGGSGGGGSDIQMTQSPSSLSASVGDRVTITCRSSQNIVHSNGNTYLDWYQQTPGKAPKLLIYKVSNRFSGVPSRFSGSGSGTDFTFTISSLQPEDIATYYCFQYSHVPWTFGQGTKLQITRTVAAPSVFIFPPSDEQLKSGTASVVCLLNNFYPREAKVQWKVDNALQSGNSQESVTEQDSKDSTYSLSSTLTLSKADYEKHKVYACEVTHQGLSSPVTKSFNRGEC
B12: SI-95X19 (antibody)
chain 1: not shown
chain 2: B7 chain 2
B13: SI-95X55 (antibody)
chain 1: not shown
chain 2: DIVMTQSPSSVSLSLGDRVTITCHSSQDINSNIGWLQQKPGKAFKGLIYHGTNLDDGVPSRFSGSGSGADYTLTISSLQAEDFATYYCVQYAQFPWTFGPGTKLEIKRTVAAPSVFIFPPSDEQLKSGTASVVCLLNNFYPREAKVQWKVDNALQSGNSQESVTEQDSKDSTYSLSSTLTLSKADYEKHKVYACEVTHQGLSSPVTKSFNRGEC
B14: ABT-806 V8 (antibody, V domains shown)
VH: B1 VH
VL: B1 VL with Q3V, V11L, A13V, V15P, Q79E, T85V
B15: SI-95X22 (antibody)
chain 1: not shown
chain 2: B7 chain 2
B16: SI-95X17 (antibody)
chain 1: not shown
chain 2: B7 chain 2
B17: ABT-806 V4 (antibody, V domains shown)
VH: B3 VH with P41A, I49V, V68F, S80Y
VL: B1 VL
B18: SI-95X2 (antibody)
chain 1: not shown
chain 2: B7 chain 2
B19: ABT-806 V3 (antibody, V domains shown)
VH: B3 VH
VL: B1 VL with Q3V, A13L, V15L, P44F, P80A, Q100P, V104L

Columns and labels:
Test in all cases: BLI
EGFRvIII [1] = target: T1, EGFRvIII (human, UniProt P00533)
EGFRvIII [2] = target: T1, EGFRvIII; remark: listed apart in the source
[3] = target: T2, EGFR (wild-type, His-tagged or biotinylated) (human, UniProt P00533)
EGFRvIII [4] = target: T1, EGFRvIII; remark: listed apart in the source
[5] = target: T2, EGFR (wild-type, His-tagged or …); remark: listed apart in the source

| Binder | Kd (EGFRvIII [1]) | Kd (EGFRvIII [4]) | Kd [5] | further results |
| --- | --- | --- | --- | --- |
| B1 | 37.8 nM |  |  |  |
| B2 |  |  |  | Kd (EGFRvIII [2]): 15.9 nM; binding result [3]: no binding |
| B3 | 29.5 nM |  |  |  |
| B4 | 18.4 nM |  |  |  |
| B5 | 16.1 nM |  |  |  |
| B6 |  | 1.45 nM | 6.17 nM |  |
| B7 |  | 0.839 nM | 4.73 nM |  |
| B8 |  | 0.654 nM | 5.56 nM |  |
| B9 | 30.7 nM |  |  |  |
| B10 | 26.6 nM |  |  |  |
| B11 |  | 0.281 nM | 9.35 nM |  |
| B12 |  | 0.676 nM | 5.01 nM |  |
| B13 |  |  |  | Kd (EGFRvIII [2]): 7.67 nM; binding result [3]: no binding |
| B14 | 31.9 nM |  |  |  |
| B15 |  | 0.834 nM | 6.1 nM |  |
| B16 |  | 0.642 nM | 6.02 nM |  |
| B17 | 23.2 nM |  |  |  |
| B18 |  | 1.15 nM | 5.53 nM |  |
| B19 | 15.4 nM |  |  |  |
